According to PMC5684232:
Several values for one entry are separate records, joined by “and”; a condition that tells them apart may be missing. Equal entries are not always repeated.

What was measured:
[1] = molecular target: human proteasome α7 subunit, wild type (self-assembled homo-tetradecamer) (human) (UniProt P25788); test: high-speed atomic force microscopy (HS-AFM); α7 adsorbed on APTES-mica, α6 added to the observation buffer to 1 μM; 20 mM Tris-HCl (pH 8.0), 150 mM NaCl; more than 20 min after the addition of α6; 10 fps, at most 1000 frames (100 s)
[2] = molecular target: human proteasome α7 subunit, wild type (self-assembled homo-tetradecamer) (human) (UniProt P25788); test: high-speed atomic force microscopy (HS-AFM); α7 alone adsorbed on APTES-mica; 20 mM Tris-HCl (pH 8.0), 150 mM NaCl; tapping mode
[3] = molecular target: human proteasome α7 subunit, wild type (self-assembled homo-tetradecamer) (human) (UniProt P25788); test: high-speed atomic force microscopy (HS-AFM); α7 alone adsorbed on bare mica; 20 mM Tris-HCl (pH 8.0), 150 mM NaCl; tapping mode

dwell time of the bound state [1] | percent of oligomers seen as double rings [2] | stoichiometry N [2] | percent of oligomers seen as double rings [3] | Substance
> 100 s |  |  |  | human proteasome α6 subunit, short isoform (from UniProt P25786 1-263) (natural protein)
 | 21% | 14 and 7 | 67% | human proteasome α7 subunit, wild type (self-assembled homo-tetradecamer) (from UniProt P25788 1-255) (natural protein)
